The values below come from publication doi:10.1101/518761.

In the assay the target is gp53C, C-terminal fragment of gene product 53 (gp53) of Acinetobacter baumannii bacteriophage AP22 (Acinetobacter baumannii bacteriophage AP22). Description: crystal structure.

“gp53C, C-terminal fragment of gene product 53 (gp53) of Acinetobacter baumannii bacteriophage AP22 (domain or fragment)”: the stoichiometry N was found to be 3.

By stoichiometry N is commonly meant the number of molecules, sites or subunits per partner or assembly.
